The results in this text go back to patent publication US20180037892, “EPCAM APTAMERS AND CONJUGATES THEREOF” (Deakin University, published 2018).

For data set [1], the target named is T1, Transferrin receptor (TfR) (Mus musculus, UniProt Q62351 Q62351:1-763). As to the kind of experiment: flow; bEnd.3 cells, 1 mM MgCl2 folding, 37 C. Particulars: tags: native TfR on bEnd.3 mouse cerebral endothelial cells; chain copies: 2; label: 5' TYE665; hairpin.
Data set [2] has as its target T1, Transferrin receptor (TfR). In words: flow; bEnd.3 cells, 5 mM MgCl2 folding, 37 C. To be noted: tags: native TfR on bEnd.3 mouse cerebral endothelial cells; chain copies: 2; label: 5' TYE665; two hairpins. How it is done: (§1) In order to determine the binding affinity (equilibrium dissociation constant KD) of the aptamers. Binding assays were conducted to measure the binding to native EpCAM protein expressed on the cell surface. The aptamers were incubated with the cells at concentrations ranging from 0 nM to 400 nM. These were subsequently analysed by flow cytometry. Aptamers were thawed from storage (−20° C.) prior to use. These were then diluted via serial dilutions with phosphate buffered saline (PBS) in order to achieve the desired concentrations. PBS was supplemented with a MgCl₂ concentration appropriate for the aptamer (1 mM for anti-TfR aptamers; 5 mM for conjugate aptamers). Aptamers were then folded into their 3D structures using a thermocycler (85° C. for 5 minutes, slow cooling to 22° C. over 10 minutes and 37° C. for 15 minutes).
(§2) The binding affinities of aptamers Bi1, Bi2 and Bi3 were determined semi-quantitatively via flow cytometry, using bEnd.3 cells to assess reactivity with TfR, HEY cells to determine EpCAM specificity and the MOLT4 cell line as a negative control. Three independent binding assays were performed for these aptamer against all three cell lines (bEnd.3, HEY and MOLT4).

Data set [3] deals with T2, EpCAM (UniProt P16422 P16422:24-314).
T2 sequence: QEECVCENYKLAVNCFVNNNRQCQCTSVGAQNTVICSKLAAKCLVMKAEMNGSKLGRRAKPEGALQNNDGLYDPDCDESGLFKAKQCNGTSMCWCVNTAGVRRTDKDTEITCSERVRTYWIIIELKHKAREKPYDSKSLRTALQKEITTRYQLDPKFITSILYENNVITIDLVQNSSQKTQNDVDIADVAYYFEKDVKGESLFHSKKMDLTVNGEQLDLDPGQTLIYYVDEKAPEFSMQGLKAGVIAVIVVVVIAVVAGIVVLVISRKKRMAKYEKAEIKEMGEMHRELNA
In words: flow; HEY cells, 5 mM MgCl2 folding, 37 C. To be noted: tags: native EpCAM on HT29 or HEY cells; label: 5' TYE665; two hairpins. The procedure:
as §1, §2

Data set [4] concerns the target T1, Transferrin receptor (TfR). In words: flow; bEnd.3 cells, 5 mM MgCl2 folding, 37 C; text gives 305.5. To be noted: tags: native TfR on bEnd.3 mouse cerebral endothelial cells; chain copies: 2; label: 5' TYE665; two hairpins. The procedure: as §1, §2
The target of data set [5] is T2, EpCAM. As to the kind of experiment: flow; HEY cells, 37 C. To be noted: tags: native EpCAM on HT29 or HEY cells, label: 5' TYE665, hairpin. The procedure: (§3) The equilibrium dissociation constant (KD) of each DNA EpCAM aptamer (Ep7, Ep8 and Ep9) was determined by measuring its binding to native EpCAM protein expressed on the cell surface using flow cytometry. HT29, HEY and HEK293T (5×10⁵) cells were first incubated with blocking buffer (PBS containing 10% FCS, 1 mg/mL tRNA, 1 mg/mL BSA) for 30 minutes followed by a single wash with binding buffer (PBS containing 10% FCS, 1 mg/mL tRNA, 1 mg/mL BSA) prior to incubation with serial dilutions of concentrations of the respective TYE665-labelled aptamers (0 to 200 nM) in binding buffer for 30 min at 37° C. The cells were washed three times with PBS and resuspended in PBS prior to flow cytometric analysis. The fluorescent intensity was determined using a FACS Canto II flow cytometer (Becton Dickinson), counting 10,000 events for each sample. The mean fluorescent intensity of each concentration was subtracted from that of the auto fluorescent control and the KD for each aptamer was calculated from the normalised values for fluorescent intensity.

The target in data set [6] is T2, EpCAM. As to the kind of experiment: flow; HT29 cells, 37 C; no binding to EpCAM-negative HEK293T and K562. To be noted: tags: native EpCAM on HT29 or HEY cells; label: 5' TYE665; hairpin. How it is done: as §3
Data set [7] deals with T2, EpCAM. In words: flow; HEY cells, scrambled EpCAM loop, 5 mM MgCl2 folding, 37 C. Particulars: tags: native EpCAM on HT29 or HEY cells; label: 5' TYE665; two hairpins. The procedure: as §1, §2
Data set [8] deals with T1, Transferrin receptor (TfR). As to the kind of experiment: flow; bEnd.3 cells, 5 mM MgCl2 folding, 37 C; not internalised. To be noted: tags: native TfR on bEnd.3 mouse cerebral endothelial cells; chain copies: 2; label: 5' TYE665; two hairpins. The procedure: as §1, §2
The target of data set [9] is T1, Transferrin receptor (TfR). As to the kind of experiment: flow; bEnd.3 cells, 1 mM MgCl2 folding, 37 C; text gives 365.6. Particulars: tags: native TfR on bEnd.3 mouse cerebral endothelial cells; chain copies: 2; label: 5' TYE665; hairpin.
Data set [10] deals with T2, EpCAM. As to the kind of experiment: flow; HEY cells, 37 C; not internalised. To be noted: tags: native EpCAM on HT29 or HEY cells; label: 5' TYE665; hairpin.

T1 sequence (Q62351 whole entry, one chain of several): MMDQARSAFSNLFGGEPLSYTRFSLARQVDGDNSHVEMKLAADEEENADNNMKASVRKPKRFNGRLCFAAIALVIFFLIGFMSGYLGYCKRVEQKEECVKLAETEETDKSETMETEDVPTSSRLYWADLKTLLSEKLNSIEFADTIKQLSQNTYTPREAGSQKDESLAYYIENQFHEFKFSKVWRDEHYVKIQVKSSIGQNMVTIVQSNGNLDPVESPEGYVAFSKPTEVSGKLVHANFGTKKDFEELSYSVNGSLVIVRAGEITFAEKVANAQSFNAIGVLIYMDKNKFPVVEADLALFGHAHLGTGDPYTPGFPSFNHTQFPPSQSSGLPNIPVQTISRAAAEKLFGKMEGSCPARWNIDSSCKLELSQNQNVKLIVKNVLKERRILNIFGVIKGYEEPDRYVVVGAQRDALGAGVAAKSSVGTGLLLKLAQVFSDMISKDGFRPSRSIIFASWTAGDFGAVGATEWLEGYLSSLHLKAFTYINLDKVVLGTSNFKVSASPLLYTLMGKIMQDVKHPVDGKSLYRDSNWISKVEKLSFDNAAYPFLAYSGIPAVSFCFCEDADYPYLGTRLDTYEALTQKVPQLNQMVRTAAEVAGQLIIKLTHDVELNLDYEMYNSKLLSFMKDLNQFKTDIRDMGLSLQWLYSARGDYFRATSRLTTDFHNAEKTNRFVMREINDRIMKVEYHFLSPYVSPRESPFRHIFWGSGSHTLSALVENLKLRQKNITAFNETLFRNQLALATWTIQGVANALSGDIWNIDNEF

B1: TfR2 (ssDNA)
DNA: GCGTGGGCCCACGC
modifications: 3' inverted dT
For orientation: Kd means the concentration at which binding is half-saturated. Lower therefore signals a tighter complex. On to B1, for which the Kd in data set [1] is 525 nM.

B2: Bi3 (TEPP, TfR3 loop + Ep7 loop conjugate) (ssDNA)
DNA: GCGCGGTACCGCGCTAACGGAGGTTGCGTCCGT
modifications: 3' inverted dT
On to B2, for which the Kd worked out at 342 nM in [2] and 219 nM in the data set with EpCAM [3].

B3: Bi2 (TfR2 loop + Ep7 loop conjugate) (ssDNA)
DNA: GCGCGGGCCCGCGCTAACGGAGGTTGCGTCCGT
modifications: 3' inverted dT
In the case of B3, the Kd was determined as 205 nM with EpCAM [3] and 305 nM in data set [4].

B4: Ep9 (ssDNA)
DNA: GGGGTTGGCCCCT
modifications: 3' inverted dT [13 (3' inverted dT)]
For B4, the Kd with EpCAM [5] amounted to 266 nM; in the data set with EpCAM [6], 31.8 nM.

B5: Bi1 (TENN conjugate, TfR1 loop + scrambled Ep7 loop) (ssDNA)
DNA: GCGCGTGCACGCGCTAACGGATTCCTTTTCCGT
modifications: 3' inverted dT
Consider B5, for which the equilibrium dissociation constant (Kd) with EpCAM [7] is 921 nM; in data set [8], 1690 nM.

B6: TfR3 (ssDNA)
DNA: GCGTGGTACCACGC
modifications: 3' inverted dT
In turn, B6 came in with a Kd in data set [9] of 366 nM.

B7: Scr Ex Ep7 (scrambled extended Ep7) (ssDNA)
DNA: CGCGCGCCGCATTCCTTTTGCGGCGCGCGT
modifications: 3' inverted dT [30 (3' inverted dT)]
B7 had a Kd with EpCAM [10] of 521 nM.

B8: TfR1 (ssDNA)
DNA: GCGTGTGCACACGC
modifications: 3' inverted dT
For the molecule B8, the Kd in data set [1] worked out at 5760 nM.

B9: Ex Ep7 (extended Ep7) (ssDNA)
DNA: CGCGCGCCGCAGGTTGCGTGCGGCGCGCGT
modifications: 3' inverted dT [30 (3' inverted dT)]
Turning to B9, the Kd with EpCAM [5] (10 bp stem) was found to be 63.7 nM.
